According to article PMC7688924, “α-Galactosidase and Sucrose-Kinase Relationships in a Bi-functional AgaSK Enzyme Produced by the Human Gut Symbiont Ruminococcus gnavus E1” (Frontiers in Microbiology, 2020):

Columns and labels:
[1] = substrate: O=[N+]([O-])c1ccc(O[C@H]2O[C@H](CO)[C@H](O)[C@H](O)[C@H]2O)cc1; assay: purified protein; conditions: McIlvaine's buffer pH 6.0, 42 °C, pNPGal 0.078-10 mM
[2] = substrate: Nc1ncnc2c1ncn2[C@@H]1O[C@H](COP(=O)(O)OP(=O)(O)OP(=O)(O)O)[C@@H](O)[C@H]1O; assay: bioluminescence ATP consumption assay (luciferin/luciferase); format: biochemical, Mediterraneibacter gnavus; conditions: sucrose 5 mM, pH 8.0, 30 °C, ATP 0-10 mM, […] enzyme
Source text: bioluminescence ATP consumption assay (luciferin/luciferase) on […]

[3] = substrate: Nc1ncnc2c1ncn2[C@@H]1O[C@H](COP(=O)(O)OP(=O)(O)OP(=O)(O)O)[C@@H](O)[C@H]1O; assay: as above; format: biochemical, Mediterraneibacter gnavus; conditions: sucrose 5 mM, pH 8.0, 30 °C, ATP 0-10 mM, […] enzyme; remark: listed apart in the source
Source text: bioluminescence ATP consumption assay (luciferin/luciferase) on RgSK

Row | Protein | Km [1] [mM] | Vmax [1] [µmol/min] | kcat [1] [s⁻¹] | kcat/Km [1] [M⁻¹ s⁻¹] | Km [2] [mM] | Vmax [2] [µmol/min] | kcat [2] [s⁻¹] | kcat/Km [2] [M⁻¹ s⁻¹] | Km [3] [mM] | Vmax [3] [µmol/min] | kcat [3] [s⁻¹] | kcat/Km [3] [M⁻¹ s⁻¹]
1 | RgAga (Mediterraneibacter gnavus) (protein) AIIYNPNKKIFTLHTAHTTYQMQVDPLGYLLHLYYGEKTNSSMDYVLTYADRGFSGNPYAAGMDRTYSLDALPQEYPSLGTGDYRNIALNIKNEKGVESADLLFKSYEIRNGKYRLQGLPAVWADEKEAQTLEIVLADENAQVEVHLLYGVLEENDVITRSVRIKNTGTGQITIEKAAAACLDFVQGEFDVLRFYGKHAMERNLERTPLGHGTIAFGSRRGTSSHQYNPAVILAEKGTTETAGSCYGMLFVYSGNFSCEAEKDQFNQTRLLLGLNEELFSYPLASGETFTVPEVILSYSAEGLSALSQQYHNCIRNHVCRSKYVHMQRPVLINSWEAAYFDFTGDTIVDLAKEAASLGIDMVVMDDGWFGKRNDDNSSLGDWQVNETKLGGSLAELITRVHEQGMKFGIWIEPEMINEDSDLYRAHPDWAIRIQGKKPVRSRNQLLLDFSRKEVRDCVFDQICVVLDQGKIDYVKWDMNRSMADVYAGNLSYDYVLGVYDFMERLCSRYPDLLLEGCSGGGGRFDAGMLYYSPQIWCSDNTDAINRTRIQYGTSFFYPVSAMGAHVSAVPNHQTGRVTSFHTRGVTAMAGTFGYELNPALLSDEEKQQIREQIKTYKKYETLINEGTYWRLSDPFTDEIAAWMSVSEEQDHALVSVVRLMAEANQATVYVRLRGLKPDAVYLEEQSGRQYSGAALMHAGIPLPPFTEEYEAYQFAFTELK | 1.2 ± 0.2 | 0.236 | 827 | 689000 | – | – | – | – | – | – | – | –
2 | RgAgaSK (Mediterraneibacter gnavus) (protein, full-length bifunctional enzyme (935 residues), produced in E. coli as in Bruel 2011, Ni-NTA and gel filtration, His-tag (C-terminal 6xHis given for recombinant proteins), tetramer) MAIIYNPNKKIFTLHTAHTTYQMQVDPLGYLLHLYYGEKTNSSMDYVLTYADRGFSGNPYAAGMDRTYSLDALPQEYPSLGTGDYRNIALNIKNEKGVESADLLFKSYEIRNGKYRLQGLPAVWADEKEAQTLEIVLADENAQVEVHLLYGVLEENDVITRSVRIKNTGTGQITIEKAAAACLDFVQGEFDVLRFYGKHAMERNLERTPLGHGTIAFGSRRGTSSHQYNPAVILAEKGTTETAGSCYGMLFVYSGNFSCEAEKDQFNQTRLLLGLNEELFSYPLASGETFTVPEVILSYSAEGLSALSQQYHNCIRNHVCRSKYVHMQRPVLINSWEAAYFDFTGDTIVDLAKEAASLGIDMVVMDDGWFGKRNDDNSSLGDWQVNETKLGGSLAELITRVHEQGMKFGIWIEPEMINEDSDLYRAHPDWAIRIQGKKPVRSRNQLLLDFSRKEVRDCVFDQICVVLDQGKIDYVKWDMNRSMADVYAGNLSYDYVLGVYDFMERLCSRYPDLLLEGCSGGGGRFDAGMLYYSPQIWCSDNTDAINRTRIQYGTSFFYPVSAMGAHVSAVPNHQTGRVTSFHTRGVTAMAGTFGYELNPALLSDEEKQQIREQIKTYKKYETLINEGTYWRLSDPFTDEIAAWMSVSEEQDHALVSVVRLMAEANQATVYVRLRGLKPDAVYLEEQSGRQYSGAALMHAGIPLPPFTEEYEAYQFAFTELKEAGRLYEKVQKWCDGNAENRVVISIYGGSGSGKTTLATALQQYFLNDGTECYLLSGDDYPHRIPKRNDEERMRVYKEAGEDGLRGYLGTKKEIDFDRINEVLAAFHEGKDSITLRHMGREDGEISLEETDFSGISVLLLEWTHGGSDDLHGVDLPVFLESSPGETRERRIRRNRDENAASPFICRVVELEQEKLEVQRKNAGLIVGKDGSVYEQ | 1.3 ± 0.2 | 0.179 | 626 | 481000 | 8.4 ± 1.9 | 0.0983 | 38.1 ± 4.8 | 4530 | – | – | – | –
3 | RgSK (Mediterraneibacter gnavus) (protein, isolated C-terminal sucrose kinase domain, Arg-724 to Gln-935, C-terminal His6 tag, E. coli BL21(DE3), pOPINE, 23,898 Da) RLYEKVQKWCDGNAENRVVISIYGGSGSGKTTLATALQQYFLNDGTECYLLSGDDYPHRIPKRNDEERMRVYKEAGEDGLRGYLGTKKEIDFDRINEVLAAFHEGKDSITLRHMGREDGEISLEETDFSGISVLLLEWTHGGSDDLHGVDLPVFLESSPGETRERRIRRNRDENAASPFICRVVELEQEKLEVQRKNAGLIVGKDGSVYEQ | – | – | – | – | – | – | – | – | 6.3 ± 1.8 | 0.0719 | 27.9 ± 4.3 | 4420
